Experimental data reported in the supplement of paper PMC10126150.
± gives the standard deviation of the averaged measurements.

Test system: ATP
Test: switch fluorescence ratio, 500 uM ATP over buffer (Cy3 cluster intensity, sum of 5 cycles each) (fold (ratio)); higher = stronger signal-on switching upon ATP binding; sequences stand for … in TCGTCGGCAGCGTCAGATGTGTATAAGAGACAGTTTTTTTTTTTTTTTTTTTTTTTTT…TC
Conditions: aptamer strand: ATP DNA aptamer (quencher-CACCTGGGGGAGTATTGCGGAGGAAGG + anchor), 100 nM annealed; ATP concentration: 500 uM
Method in brief: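 For every switch-domain sequence, the fluorescence ratio is the mean of per-cluster values, each being summed target-cycle Cy3 intensity over summed buffer-cycle Cy3 intensity. Clusters outside 100-1000 RFU were excluded. On a modified Illumina MiSeq flow-cell, the Cy3-labelled switching-strand clusters were annealed to 100 nM quencher-labelled ATP aptamer, imaged in selection buffer and then after 15 min with 500 uM ATP at 22 °C. Five such cycles were run, with NaOH stripping and re-annealing between them.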
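Note: ATP exposure 15 min at 22 °C before imaging.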

With GGTGAGGGAC the switch fluorescence ratio was 1.02 ± 0.011.
Sequence GGTGATGCGC has a switch fluorescence ratio of 0.978 ± 0.034.
GGTGATGGGG gave a switch fluorescence ratio of 0.985 ± 0.038.
GGTGATGTGT showed a switch fluorescence ratio of 1.004 ± 0.0075.
For GGTGATTGTG, the switch fluorescence ratio was 0.9826 ± 0.004.
GGTGATTTAA gave a switch fluorescence ratio of 1.01 ± 0.012.
Sequence GGTGATTTAT has a switch fluorescence ratio of 1.01 ± 0.029.
GGTGCATAGC was tested, and the switch fluorescence ratio was 0.9714 ± 0.0074.
In the case of GGTGCATGAC, the switch fluorescence ratio is reported as 1.39 ± 0.0037.
GGTGCGGGGT was tested, and the switch fluorescence ratio was 0.983 ± 0.016.
With GGTGCTAGCG the switch fluorescence ratio was 1.0247 ± 0.00089.
GGTGCTTAGG showed a switch fluorescence ratio of 1.02 ± 0.024.
For GGTGCTTGGT, the switch fluorescence ratio was 0.989 ± 0.018.
GGTGGAAAGG showed a switch fluorescence ratio of 0.982 ± 0.043.
With GGTGGAAGAG the switch fluorescence ratio was 0.982 ± 0.036.
Work on GGTGGAAGCT yielded a switch fluorescence ratio of 1.01 ± 0.025.
With GGTGGAAGGG the switch fluorescence ratio was 0.975 ± 0.03.
With GGTGGAATCA the switch fluorescence ratio was 0.9816 ± 0.0017.
With GGTGGACAAC the switch fluorescence ratio was 0.997 ± 0.013.
GGTGGAGCCC showed a switch fluorescence ratio of 0.962 ± 0.04.
For GGTGGAGGAA, the switch fluorescence ratio was 1.027 ± 0.0053.
Work on GGTGGAGGAG yielded a switch fluorescence ratio of 0.979 ± 0.023.
GGTGGAGGGT showed a switch fluorescence ratio of 0.9938 ± 0.0025.
GGTGGATGCC showed a switch fluorescence ratio of 1.02 ± 0.04.
GGTGGATTGG showed a switch fluorescence ratio of 1.07 ± 0.1.
GGTGGCAGGA showed a switch fluorescence ratio of 1.01 ± 0.032.
With GGTGGCGCTA the switch fluorescence ratio was 1.01 ± 0.02.
GGTGGGCGGG was tested, and the switch fluorescence ratio was 1.01 ± 0.016.
Sequence GGTGGGGACG has a switch fluorescence ratio of 0.974 ± 0.037.
GGTGGGGCAC was tested, and the switch fluorescence ratio was 0.999 ± 0.041.
For GGTGGGGCCC, the switch fluorescence ratio was 0.983 ± 0.032.
In the case of GGTGGGGGGA, the switch fluorescence ratio is reported as 1.01 ± 0.063.
With GGTGGGGGT the switch fluorescence ratio was 1.35 ± 0.48.
For GGTGGGTATA, the switch fluorescence ratio was 1 ± 0.037.
GGTGGGTGGG was tested, and the switch fluorescence ratio was 0.999 ± 0.042.
Sequence GGTGGTACGT has a switch fluorescence ratio of 0.999 ± 0.022.
GGTGGTACTG gave a switch fluorescence ratio of 1.01 ± 0.037.
Work on GGTGGTAGGC yielded a switch fluorescence ratio of 1 ± 0.046.
Work on GGTGGTCGGG yielded a switch fluorescence ratio of 0.982 ± 0.0053.
GGTGGTGACT showed a switch fluorescence ratio of 1.01 ± 0.036.
Sequence GGTGGTGGGC has a switch fluorescence ratio of 0.954 ± 0.01.
Work on GGTGGTGTCG yielded a switch fluorescence ratio of 1 ± 0.017.
With GGTGGTGTTT the switch fluorescence ratio was 1 ± 0.026.
GGTGGTTGGA gave a switch fluorescence ratio of 1.02 ± 0.04.
With GGTGTAAGAA the switch fluorescence ratio was 1.002 ± 0.0085.
With GGTGTACGGA the switch fluorescence ratio was 0.972 ± 0.043.
Sequence GGTGTATTAG has a switch fluorescence ratio of 1 ± 0.029.
For GGTGTATTTG, the switch fluorescence ratio was 0.981 ± 0.013.
Sequence GGTGTCTTCA has a switch fluorescence ratio of 1.06 ± 0.076.
With GGTGTGAATT the switch fluorescence ratio was 1.02 ± 0.034.
For GGTGTGAGGT, the switch fluorescence ratio was 0.9973 ± 0.0093.
GGTGTGAGTA showed a switch fluorescence ratio of 1.01 ± 0.016.
With GGTGTGATTG the switch fluorescence ratio was 0.977 ± 0.04.
GGTGTGCACC showed a switch fluorescence ratio of 1 ± 0.025.
With GGTGTGGGCG the switch fluorescence ratio was 0.983 ± 0.079.
GGTGTGTCTC was tested, and the switch fluorescence ratio was 1.03 ± 0.065.
GGTGTGTTGC gave a switch fluorescence ratio of 0.998 ± 0.06.
GGTGTTAAAC showed a switch fluorescence ratio of 1.01 ± 0.035.
For GGTGTTATGT, the switch fluorescence ratio was 1.01 ± 0.016.
GGTGTTCTGA was tested, and the switch fluorescence ratio was 1.01 ± 0.023.
GGTGTTGGCT gave a switch fluorescence ratio of 1.02 ± 0.059.
With GGTGTTGGTG the switch fluorescence ratio was 1.01 ± 0.025.
GGTGTTTGCT was tested, and the switch fluorescence ratio was 0.965 ± 0.022.
GGTTAAGTGT gave a switch fluorescence ratio of 1.01 ± 0.021.
In the case of GGTTACCTTC, the switch fluorescence ratio is reported as 1.356 ± 0.0068.
GGTTACTGGT was tested, and the switch fluorescence ratio was 1.01 ± 0.03.
With GGTTAGATAC the switch fluorescence ratio was 1.19 ± 0.025.
With GGTTAGATGT the switch fluorescence ratio was 0.9766 ± 0.0075.
GGTTAGGGGA showed a switch fluorescence ratio of 0.994 ± 0.036.
GGTTATAGGA was tested, and the switch fluorescence ratio was 0.99 ± 0.036.
GGTTATAGTC showed a switch fluorescence ratio of 0.966 ± 0.02.
GGTTATATAG showed a switch fluorescence ratio of 1.01 ± 0.016.
GGTTATCGTA showed a switch fluorescence ratio of 1.02 ± 0.011.
GGTTATGAGG was tested, and the switch fluorescence ratio was 0.994 ± 0.031.
In the case of GGTTATGCGG, the switch fluorescence ratio is reported as 1.01 ± 0.046.
GGTTATTGCT was tested, and the switch fluorescence ratio was 1.02 ± 0.0033.
In the case of GGTTATTTGT, the switch fluorescence ratio is reported as 0.992 ± 0.041.
GGTTATTTTG gave a switch fluorescence ratio of 1.01 ± 0.015.
With GGTTCAATTG the switch fluorescence ratio was 1.03 ± 0.089.
GGTTCAGATG gave a switch fluorescence ratio of 1.0081 ± 0.00081.
Sequence GGTTCAGCTT has a switch fluorescence ratio of 0.981 ± 0.013.
Sequence GGTTCAGGCT has a switch fluorescence ratio of 0.977 ± 0.025.
GGTTCCGTGG was tested, and the switch fluorescence ratio was 0.994 ± 0.023.
In the case of GGTTGAGGGG, the switch fluorescence ratio is reported as 0.985 ± 0.034.
GGTTGAGGTG showed a switch fluorescence ratio of 1.01 ± 0.039.
GGTTGATAAT was tested, and the switch fluorescence ratio was 1.002 ± 0.0043.
With GGTTGCGGCA the switch fluorescence ratio was 1.01 ± 0.041.
Sequence GGTTGCTAGG has a switch fluorescence ratio of 0.9916 ± 0.0037.
In the case of GGTTGGAATT, the switch fluorescence ratio is reported as 1.01 ± 0.025.
For GGTTGGATTT, the switch fluorescence ratio was 0.978 ± 0.017.
Sequence GGTTGGGATC has a switch fluorescence ratio of 0.9513 ± 0.0082.
In the case of GGTTGGGGGT, the switch fluorescence ratio is reported as 1.01 ± 0.045.
GGTTGGGTCC gave a switch fluorescence ratio of 0.9701 ± 0.0018.
Work on GGTTGGTGGT yielded a switch fluorescence ratio of 1.028 ± 0.0064.
GGTTGGTGTG gave a switch fluorescence ratio of 0.967 ± 0.023.
Work on GGTTGGTTTC yielded a switch fluorescence ratio of 1.01 ± 0.055.
Work on GGTTGGTTTG yielded a switch fluorescence ratio of 0.99 ± 0.06.
With GGTTGGTTTT the switch fluorescence ratio was 0.992 ± 0.024.
GGTTGTCCAG gave a switch fluorescence ratio of 0.9966 ± 0.0014.
In the case of GGTTGTCTTA, the switch fluorescence ratio is reported as 0.9726 ± 0.0018.
